Source: the supplement of paper PMC12338614
± gives the uncertainty stated by the source.

B1: library; numbered along this chain (parent)
chain: MEVVDPQQLGMFTEGELMSVGMDTFIHRIDSTEVIYQPRRKRAKLIGKYLMGDLLGEGSYGKVKEVLDSETLCRRAVKILKKKKLRRIPNGEANVKKEIQLLRRLRHKNVIQLVDVLYNEEKQKMYMVMEYCVCGMQEMLDSVPEKRFPVCQAHGYFCQLIDGLEYLHSQGIVHKDIKPGNLLLTTGGTLKISDLGVAEALHPFAADDTCRTSQGSPAFQPPEIANGLDTFSGFKVDIWSAGVTLYNITTGLYPFEGDNIYKLFENIGKGSYAIPGDCGPPLSDLLKGMLEYEPAKRFSIRQIRQHSWFRKKHPPAEAPVPIPPSPDTKDRWRSMTVVPYLEDLHGADEDEDLFDIEDDIIYTQDFTVPGQVPEEEASHNGQRRGLPKAVCMNGTEAAQLSTKSRAEGRAPNPARKACSASSKIRRLSACKQQ

Variants of: B1
Experiment: STK11 functional score (HeLa growth suppression), rescaled enrichment; synonymous median = 1, nonsense median = 0 (normalised score)
Conditions: with HeLa; variant type: missense
Method: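 Deep mutational scan (TileSeq/POPCode codon randomisation) of full-length codon-optimised STK11 cDNA integrated at a Bxb1 landing pad (AAVS1) in HeLa cells. Restoring functional STK11 suppresses HeLa proliferation. Variant frequencies were measured by NGS before and after about two weeks of growth. The error-corrected enrichment log-ratio was rescaled so that synonymous median = 1 and nonsense median = 0, scores above 1 were compressed, and codon-level and three biological replicate scores were combined; error is the bootstrapped standard error. Scale: synonymous median = 1, nonsense median = 0; below 0.5 = damaging.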

Row | Variant | STK11 functional score
1 | MEVVDPQQLGMFTEGELMSVGMDTFIHRIDSTEVIYQPRRKRAKLIGKYLMGDLLGEGSYGKVKEVLDSETLCRRAVKILKKKKLRRIPNGEANVKKEIQLLRRLRHKNVIQLVDVLYNEEKQKMYMVMEYCVCGMQEMLDSVPEKRFPVCQAHGYFCQLIDGLEYLHSQGIVHKDIKPGNLLLTTGGTLKVSDLGVAEALHPFAADDTCRTSQGSPAFQPPEIANGLDTFSGFKVDIWSAGVTLYNITTGLYPFEGDNIYKLFENIGKGSYAIPGDCGPPLSDLLKGMLEYEPAKRFSIRQIRQHSWFRKKHPPAEAPVPIPPSPDTKDRWRSMTVVPYLEDLHGADEDEDLFDIEDDIIYTQDFTVPGQVPEEEASHNGQRRGLPKAVCMNGTEAAQLSTKSRAEGRAPNPARKACSASSKIRRLSACKQQ [I192V] | 1.33 ± 0.42
2 | MEVVDPQQLGMFTEGELMSVGMDTFIHRIDSTEVIYQPRRKRAKLIGKYLMGDLLGEGSYGKVKEVLDSETLCRRAVKILKKKKLRRIPNGEANVKKEIQLLRRLRHKNVIQLVDVLYNEEKQKMYMVMEYCVCGMQEMLDSVPEKRFPVCQAHGYFCQLIDGLEYLHSQGIVHKDIKPGNLLLTTGGTLKISDLGVAEALHPFAADDTCRTSQGSPAFQPPEIANGLDTFSGFKVDIWSAGVTLYNITTGLYPFEGDNIYKLFENIGKGSYAIPGDCGPPLSDLLKRMLEYEPAKRFSIRQIRQHSWFRKKHPPAEAPVPIPPSPDTKDRWRSMTVVPYLEDLHGADEDEDLFDIEDDIIYTQDFTVPGQVPEEEASHNGQRRGLPKAVCMNGTEAAQLSTKSRAEGRAPNPARKACSASSKIRRLSACKQQ [G288R] | 0.927 ± 0.28
3 | MEVVDPQQLGMFTEGELMSVGMDTFIHRIDSTEVIYQPRRKRAKLIGKYLMGDLLGEGSYGKVKEVLDSETLCRRAVKILKKKKLRRIPNGEANVKKEIQLLRRLRHKNVIQLVDVLYNEEKQKMYMVMEYCVCGMQEMLDSVPEKRFPVCQAHGYFCQLIDGLEYLHSQGIVHKDIKPGNLLLTTGGTLKISDLGVAEALHPFAADDTCRTSQGSPAFQPPEIANGLDTFSGFKVDIWSAGVTLYNITTGLYPFEGDNIYKLFENIGKGSYAIPGDCGPPLSDLLKGMLEYEPAKRFSIRQIRQHSWFRKKHPPAEAPVPIPPSPDTKDRWRSMTVVPYLEDLHGADEDEDLFDIEDDIIYTQDFTVPGQVPEEEASHNGQRRGLPKAVCMAGTEAAQLSTKSRAEGRAPNPARKACSASSKIRRLSACKQQ [N393A] | 1.59 ± 0.23
4 | MEVVDPQQLGMFTEGELMSVGMDTFIHRIDSTEVIYQPRRKRAKLIGKYLMGDLLGEGSYGKVKEVLDSETLCRRAVKILKKKKLRRIPNGEANVKKEIQLLRRLRHKNVIQLVDVLYNEEKQKMYMVMEYCVCGMQEMLDSVPEKRFPVCQAHGYFCQLIDGLEYLHYQGIVHKDIKPGNLLLTTGGTLKISDLGVAEALHPFAADDTCRTSQGSPAFQPPEIANGLDTFSGFKVDIWSAGVTLYNITTGLYPFEGDNIYKLFENIGKGSYAIPGDCGPPLSDLLKGMLEYEPAKRFSIRQIRQHSWFRKKHPPAEAPVPIPPSPDTKDRWRSMTVVPYLEDLHGADEDEDLFDIEDDIIYTQDFTVPGQVPEEEASHNGQRRGLPKAVCMNGTEAAQLSTKSRAEGRAPNPARKACSASSKIRRLSACKQQ [S169Y] | 1.54 ± 0.34
5 | MEVVDPQQLGMFTEGELMSVGMDTFIHRIDSTEVIYQPRRKRAKLIGKYLMGDLLGEGSYGNVKEVLDSETLCRRAVKILKKKKLRRIPNGEANVKKEIQLLRRLRHKNVIQLVDVLYNEEKQKMYMVMEYCVCGMQEMLDSVPEKRFPVCQAHGYFCQLIDGLEYLHSQGIVHKDIKPGNLLLTTGGTLKISDLGVAEALHPFAADDTCRTSQGSPAFQPPEIANGLDTFSGFKVDIWSAGVTLYNITTGLYPFEGDNIYKLFENIGKGSYAIPGDCGPPLSDLLKGMLEYEPAKRFSIRQIRQHSWFRKKHPPAEAPVPIPPSPDTKDRWRSMTVVPYLEDLHGADEDEDLFDIEDDIIYTQDFTVPGQVPEEEASHNGQRRGLPKAVCMNGTEAAQLSTKSRAEGRAPNPARKACSASSKIRRLSACKQQ [K62N] | 1.6 ± 0.6
6 | MEVVDPQQLGMFTEGELMSVGMDTFIHRIDSTEVIYQPRRKRAKLIGKYLMGDLLGEGSYGKVKEVLDSETLCRRAVKILKKKKLRRIPNGEANVKKEIQLLRRLRHKNVIQLVDVLYNEEKQKMYMVMEYCVCGMQEMLDSVPEKRFPVCQAHGYFCQLIDGLEYLHSQGIVHKDIKPGNLLLTTGGTLKISDLGVAEALHPFAADDTCRTSQGSPAFQPPEIANGLDTFSGFKVDIWSAGVTLYNITTGLYPFEGDNIYKLFENIGKGSYAIPGDCGPPLSDLLKGMLEYEPAKRFSIRQIRQHSWFRKKHEPAEAPVPIPPSPDTKDRWRSMTVVPYLEDLHGADEDEDLFDIEDDIIYTQDFTVPGQVPEEEASHNGQRRGLPKAVCMNGTEAAQLSTKSRAEGRAPNPARKACSASSKIRRLSACKQQ [P314E] | 1.54 ± 0.15
7 | MEVVDPQQLGMFTEGELMSVGMDTFIHRIDSTEVIYQPRRKRAKLIGKYLMGDLLGEGSYGKVKEVLDSETLCRRAVKILKKKKLRRIPNGEANVKKEIQLLRRLRHKNVIQLVDVLYNEEKQKMYMVMEYCVCGMQEMLDSVPEKRFPVCQAHGYFCQLIDGLEYLHSQGIVHKDIKPGNLLLTTGGTLKISDLGVAEALHPFAADDTCRTSQGSPAFQPPEIANGLDTFSGFKVDIWSAGVTLYNITTGLYPFEGDNIYKLFENIGKGSYAIPGDCGPPLSDLLKGMLEYEPAKRFSIRQIRQHSWFRKKHPPAEAPVPIPPSPDTKDRWRSMTVVPYLEDLHGADEDEDLFDIEDDIIYTQDFCVPGQVPEEEASHNGQRRGLPKAVCMNGTEAAQLSTKSRAEGRAPNPARKACSASSKIRRLSACKQQ [T367C] | 1.4 ± 0.41
8 | MEVVDPQQLGMFTEGELMSVGMDTFIHRIDSTEVIYQPRRKRAKLIGKYLMGDLLGEGSYGKVKEVLDSETLCRRAVKILKKKKLRRIPNGEANVKKEIQLLRRLRHKNVIQLVDVLYNEEKQKMYMVMEYCVCGMQEMLGSVPEKRFPVCQAHGYFCQLIDGLEYLHSQGIVHKDIKPGNLLLTTGGTLKISDLGVAEALHPFAADDTCRTSQGSPAFQPPEIANGLDTFSGFKVDIWSAGVTLYNITTGLYPFEGDNIYKLFENIGKGSYAIPGDCGPPLSDLLKGMLEYEPAKRFSIRQIRQHSWFRKKHPPAEAPVPIPPSPDTKDRWRSMTVVPYLEDLHGADEDEDLFDIEDDIIYTQDFTVPGQVPEEEASHNGQRRGLPKAVCMNGTEAAQLSTKSRAEGRAPNPARKACSASSKIRRLSACKQQ [D141G] | 1.2 ± 0.36
9 | MEVVDPQQLGMFTEGELMSVGMDTFIHRIDSTEVIYQPRRKRAKLIGKYLMGDLLGEGSYGKVKEVLDSETLCRRAVKILKKKKLRRIPNGEANVKKEIQLLRRLRHKNVIQLVDVLYNEEWQKMYMVMEYCVCGMQEMLDSVPEKRFPVCQAHGYFCQLIDGLEYLHSQGIVHKDIKPGNLLLTTGGTLKISDLGVAEALHPFAADDTCRTSQGSPAFQPPEIANGLDTFSGFKVDIWSAGVTLYNITTGLYPFEGDNIYKLFENIGKGSYAIPGDCGPPLSDLLKGMLEYEPAKRFSIRQIRQHSWFRKKHPPAEAPVPIPPSPDTKDRWRSMTVVPYLEDLHGADEDEDLFDIEDDIIYTQDFTVPGQVPEEEASHNGQRRGLPKAVCMNGTEAAQLSTKSRAEGRAPNPARKACSASSKIRRLSACKQQ [K122W] | 1.4 ± 0.36
10 | MEVVDPQQLGMFTEGELMSVGMDTFIHRIDSTEVIYQPRRKRAKLIGKYLMGDLLGEGSYGKVKEVLDSETLCRRAVKILKKKKLRRIPNGEANVKKEIQLLRRLIHKNVIQLVDVLYNEEKQKMYMVMEYCVCGMQEMLDSVPEKRFPVCQAHGYFCQLIDGLEYLHSQGIVHKDIKPGNLLLTTGGTLKISDLGVAEALHPFAADDTCRTSQGSPAFQPPEIANGLDTFSGFKVDIWSAGVTLYNITTGLYPFEGDNIYKLFENIGKGSYAIPGDCGPPLSDLLKGMLEYEPAKRFSIRQIRQHSWFRKKHPPAEAPVPIPPSPDTKDRWRSMTVVPYLEDLHGADEDEDLFDIEDDIIYTQDFTVPGQVPEEEASHNGQRRGLPKAVCMNGTEAAQLSTKSRAEGRAPNPARKACSASSKIRRLSACKQQ [R106I] | 1.71 ± 0.18
11 | MEVVDPQQLGMFTEGELMSVGMDTFIHRIDSTEVIYQPRRKRAKLIGKYLMGDLLGEGSYGKVKEVLDSETLCRRAVKILKKKKLRRIPNGEANVKKEIQLLRRLSHKNVIQLVDVLYNEEKQKMYMVMEYCVCGMQEMLDSVPEKRFPVCQAHGYFCQLIDGLEYLHSQGIVHKDIKPGNLLLTTGGTLKISDLGVAEALHPFAADDTCRTSQGSPAFQPPEIANGLDTFSGFKVDIWSAGVTLYNITTGLYPFEGDNIYKLFENIGKGSYAIPGDCGPPLSDLLKGMLEYEPAKRFSIRQIRQHSWFRKKHPPAEAPVPIPPSPDTKDRWRSMTVVPYLEDLHGADEDEDLFDIEDDIIYTQDFTVPGQVPEEEASHNGQRRGLPKAVCMNGTEAAQLSTKSRAEGRAPNPARKACSASSKIRRLSACKQQ [R106S] | 1.49 ± 0.16
12 | MEVVDPQQLGMFTEGELMSVGMDTFIHRIDSTEVIYQPRRKRAKLIGKYLMGDLLGEGSYGKVKEVLDSETLCRRAVKILKKKKLRRIPNGEANVKKEIQLLRRLRHKNVIQLVDVLYNEWKQKMYMVMEYCVCGMQEMLDSVPEKRFPVCQAHGYFCQLIDGLEYLHSQGIVHKDIKPGNLLLTTGGTLKISDLGVAEALHPFAADDTCRTSQGSPAFQPPEIANGLDTFSGFKVDIWSAGVTLYNITTGLYPFEGDNIYKLFENIGKGSYAIPGDCGPPLSDLLKGMLEYEPAKRFSIRQIRQHSWFRKKHPPAEAPVPIPPSPDTKDRWRSMTVVPYLEDLHGADEDEDLFDIEDDIIYTQDFTVPGQVPEEEASHNGQRRGLPKAVCMNGTEAAQLSTKSRAEGRAPNPARKACSASSKIRRLSACKQQ [E121W] | 0.251 ± 0.073
13 | MEVVDPQQLGMFTEGELMSVGMDTFIHRIDSTEVIYQPRRKRAKLIGKYLMGDLLGEGSYGKVKEVLDSETLCRRAVKILKKKKLRRIPNGEANVKKEIQLLRRLRHKNVIQLVDVLYNEEKQKMYMVMEYCVCGMQEMLDSVPEKRFPVCQAHGYFCQLIDGLEYLHSQGIVHKDIKPGNLLLTTGGTLKISDLGVAEALHPFAADDTCRTSQGSPAFQPPEIANGLYTFSGFKVDIWSAGVTLYNITTGLYPFEGDNIYKLFENIGKGSYAIPGDCGPPLSDLLKGMLEYEPAKRFSIRQIRQHSWFRKKHPPAEAPVPIPPSPDTKDRWRSMTVVPYLEDLHGADEDEDLFDIEDDIIYTQDFTVPGQVPEEEASHNGQRRGLPKAVCMNGTEAAQLSTKSRAEGRAPNPARKACSASSKIRRLSACKQQ [D229Y] | 0.508 ± 0.12
14 | MEVVDPQQLGMFTEGELMSVGMDTFIHRIDSTEVIYQPRRKRAKLIGKYLMGDLLGEGSYGKVKEVLDSETLCRRAVKILKKKKLRRIPNGEANVKKEIQLLRRLREKNVIQLVDVLYNEEKQKMYMVMEYCVCGMQEMLDSVPEKRFPVCQAHGYFCQLIDGLEYLHSQGIVHKDIKPGNLLLTTGGTLKISDLGVAEALHPFAADDTCRTSQGSPAFQPPEIANGLDTFSGFKVDIWSAGVTLYNITTGLYPFEGDNIYKLFENIGKGSYAIPGDCGPPLSDLLKGMLEYEPAKRFSIRQIRQHSWFRKKHPPAEAPVPIPPSPDTKDRWRSMTVVPYLEDLHGADEDEDLFDIEDDIIYTQDFTVPGQVPEEEASHNGQRRGLPKAVCMNGTEAAQLSTKSRAEGRAPNPARKACSASSKIRRLSACKQQ [H107E] | 0.776 ± 0.079
